According to patent publication US5750365, “Isolated nucleic acid encoding a newt acidic fibroblast growth factor (AFGF)” (The Ohio State University Research Foundation, dated 1998):

Experiments:
bovine brain aFGF = bovine brain aFGF (bovine, UniProt P03968, 125I-labeled); assay: chemical crosslinking (DSS) on CHO-K1 cells over-expressing newt KGFR, SDS-PAGE
Protocol: (§1) CHO cells transfected with pBJ5 vector (lane 1) or with newt KGFR expression vector (lanes 2–4) were crosslinked with ^125I-aFGF using 0.3 mM disuccinimidyl suberate (DSS). Excess amounts (500-fold) of aFGF (lane 3) or KGF (lane 4) were used to compete with ^125I-aFGF. Crosslinked products were analyzed on a 7.5% SDS-polyacrylamide gel.
(§2) To characterize the newt FGFR cDNA functionally, the newt KGFR were expressed in CHO-K1 cells. The mammalian expression vector, pBJ5, which contains a chimeric promoter derived from HTLV-I and SV40, was used to express the newt KGFR and FGFR2 cDNA. […] The crosslinked product can be successfully competed off with a 500-fold molar excess of cold aFGF or human recombinant KGF as shown in FIG. 11. The crosslinked product is absent in KPTr1-8, the CHO cells that were transfected with the pBJ5 vector alone. The crosslinked product thus appears to be specific. Similarly, a cell line over-expressing the human KGFR (T-1063-29-2 from S. A. Aaronson, NIH) was able to produce a somewhat smaller crosslinked product than the newt KGFR. Antibodies (both monoclonal and polyclonal) directed against a peptide from the carboxyl terminus of the newt FGFR2 are generated.

human recombinant KGF = target: T1, human recombinant KGF (human, UniProt P21781); assay: competition of 125I-aFGF crosslinking on KPTr2-2 cells; competitor in 500-fold molar excess
T1 sequence: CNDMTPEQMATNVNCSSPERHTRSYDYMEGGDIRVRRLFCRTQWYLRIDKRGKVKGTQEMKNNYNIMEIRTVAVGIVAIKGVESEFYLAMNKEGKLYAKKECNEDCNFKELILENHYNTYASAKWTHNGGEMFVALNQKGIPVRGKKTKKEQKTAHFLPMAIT
Protocol: as §1, §2

recombinant human aFGF = recombinant human aFGF (human, UniProt P05230, 125I-labeled); assay: Scatchard plot of 125I-aFGF binding to KPTr2-2 cells (CHO-K1 expressing newt KGFR)

B1: newt KGFR (KGFR isoform, IIIb, of newt FGFR2; two Ig-like loop variant), expressed on CHO-K1 cells (KPTr2-2) (receptor)
chain: RPSYNIAEDTTLEPEDANSSGDDEDDNDGSEDFTNDNNHMRAPYWTNTEKLEKKLHAVPAANTVKFRCPAGGNPTPSMRWLKNGKEFKQEHRIGGFKVRSQHFSLIMESVVPSDEGNYTCIMENEYGSINHTYHLDVVERSPHRPILQAGLPANTTTKVGGDAEFVCKVYSDAQPHIQWIRHFELNGSKIGPDGHPYLKVLKRSGINSSNAEVLTLHNVTEADRGQYTCKVSNYIGEANQSAWLTVLPASEKDEERELDSSSEYTEIAIYCVGGFLITCMIGTIMVCHMKGRGKKSDFSSPPAVHKLSKSLPLRRQVTVSADSSSSMNSNTPLVRITTRLSSNNDTHLLAGVSEYELPEDPKWEYPREKLTLGKPLGEGCFGQVVMAEAVGIDKDRPKDAATVAVKMLKDDATEKDLSDLVSEMEMMKMIGKHKNIINLLGACTQDGPLYVIVEYASKGNLREYLRTRRPPGMEYSFDINRIPEEQMTFKDLVSCTYQLARGMEYLASQKCIHRDLAARNVLVTETNVMKIADFGLARDINNIDYYKKTTNGRLPVKWMAPEALFDRVYTHQSDVWSFGVLMWEIFTLGGSPYPGIPVEELFKLLKEGHRMDKPGNCTNELYTMMTDCWRAVPSQRPTFKQLVEDLDRILTQTTNEEYLDLNNPLEQYSPSYPDTRSSCSSGDDSVFSPDAMPYDPCLPKSQHTNGTIKT
Bovine brain aFGF
  binding result: binds
Human recombinant KGF
  binding result: binds
Recombinant human aFGF
  Kd: 1.3 nM
